From patent publication US20210283233A1 come the findings set out here.

The target of this series is T1, rPfSEP-1A (recombinant polypeptide encoded by nt 2,431-3,249 of PF3D7_1021800, aa 810-1083 of PfSEP-1).
T1 chain: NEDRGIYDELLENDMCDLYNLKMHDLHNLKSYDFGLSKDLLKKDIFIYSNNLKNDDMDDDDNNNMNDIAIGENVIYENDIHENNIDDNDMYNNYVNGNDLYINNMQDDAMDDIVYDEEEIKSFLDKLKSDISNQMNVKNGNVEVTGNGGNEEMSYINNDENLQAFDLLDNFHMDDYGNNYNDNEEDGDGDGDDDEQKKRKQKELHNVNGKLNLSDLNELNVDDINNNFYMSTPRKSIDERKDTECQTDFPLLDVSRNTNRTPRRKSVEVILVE

B1: rPfCDPK-5 (recombinant Plasmodium falciparum calcium-dependent protein kinase 5, PF3D7_1337800) (protein)
chain: MKETEVEDMDTNRKDGKIKKKEKIVNMKNEEVKSTTKSTLADSDEDYSIITLCTKCLSKKLEDNKNRIILDSKAFKDNRLKGRCSVSSNEDPLDNKLNLSPYFDRSQIIQEIILMNNDELSDVYEIDRYKLGKGSYGNVVKAVSKRTGQQRAIKIIEKKKIHNIERLKREILIMKQMDHPNIIKLYEVYEDNEKLYLVLELCDGGELFDKIVKYGSFSEYEAYKIMKQIFSALYYCHSKNIMHRDLKPENILYVDNTEDSPIQIIDWGFASKCMNNHNLKSVVGTPYYIAPEILRGKYDKRCDIWSSGVIMYILLCGYPPFNGKNNDEILKKVEKGEFVFDSNYWARVSDDAKDLICQCLNYNYKERIDVEQVLKHRWFKKFKSNNLIINKTLNKTLIEKFKEFHKLCKIKKLAVTCIAYQLNEKDIGKLKKTFEAFDHNGDGVLTISEIFQCLKVNDNEFDRELYFLLKQLDTDGNGLIDYTEFLAACLDHSIFQQDVICRNAFNVFDLDGDGVITKDELFKILSFSAVQVSFSKEIIENLIKEVDSNNDGFIDYDEFYKMMTGVKE
With B1, the phosphorylation entry is given as “rPfCDPK-5 was found to phosphorylate rPfSEP-1A”.
